Measured values: the supplement of paper PMC7877785
± gives the uncertainty stated by the source.

Experiment: self-splicing fitness, log relative to wild type (ln ratio); higher = more splicing; Tetrahymena group I intron in knt gene, E. coli kanamycin selection, DiMSum; sequences stand for … in CUCUCU…GGAGGGAAAAGUUAUCAGGCAUGCACCUGGUAGCUAGUCUUUAAACCAAUAGAUUGCAUCGGUUUAAAAGGCAAGACCGUCAAAUUGCGGGAAAGGGGUCAACAGCCGUUCAGUACCAAGUCUCAGGGGAAACUUUGAGAUGGCCUUGCAAAGGGUAUGGUAAUAAGCUGACGGACAUGGUCCUAACCACGCAGCCAAGUCCUAAGUCAACAGAUCUUCUGUUGAUAUGGAUGCAGUUCACAGACUAAAUGUCGGUCGGGGAAGAUGUAUUCUUCUCAUAAGAUAUAGUCGGACCUCUCCUUAAUGGGAGCUAGCGGAUGAAGUGAUGCAACACUGGAGCCGCUGGGAACUAAUUUGUAUGCGAAAGUAUAUUGAUUAGUUUUGGAGUACUCGUGGUCG
Summary of the method: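 Colonies from six replicate transformations of E. coli BL21(DE3) were pooled and amplicon-sequenced on an Illumina HiSeq 2500. The library placed an intron with all eight P1ex-region nucleotides randomised inside the knt kanamycin-resistance gene on pET-22b(+), and cells grew overnight at 37°C or 30°C on LB agar with or without 25 μg/mL kanamycin (plus 100 μg/mL carbenicillin, 50 μM IPTG, 0.2% rhamnose). Fitness is the DiMSum error-weighted combination of wild-type-normalised replicate fold changes, kanamycin versus none.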

Sequence	self-splicing fitness (ln) (30 °C)	self-splicing fitness (ln) (37 °C)
ACCGAGCAAUAUUACGAAAG	-3.42 ± 0.37	-1.68 ± 0.17
ACCGAGCAAUAUUACGAACG	-2.36 ± 0.2	-0.527 ± 0.22
ACCGAGCAAUAUUACGAAUU	-4.54 ± 0.39	-1.89 ± 0.21
ACCGAGCAAUAUUACGACCA	–	-0.694 ± 0.33
ACCGAGCAAUAUUACGACCU	-1.75 ± 0.11	-0.53 ± 0.12
ACCGAGCAAUAUUACGAGGC	-4.59 ± 0.29	-3.23 ± 0.33
ACCGAGCAAUAUUACGAUAC	-4.32 ± 0.36	-2.09 ± 0.27
ACCGAGCAAUAUUACGCACA	-2.47 ± 0.11	-1.67 ± 0.11
ACCGAGCAAUAUUACGCCCA	-1.68 ± 0.29	-3.03 ± 0.3
ACCGAGCAAUAUUACGCCUC	-2.87 ± 0.19	-2.36 ± 0.22
ACCGAGCAAUAUUACGCGCU	-2.81 ± 0.17	-1.19 ± 0.19
ACCGAGCAAUAUUACGCUAG	-2.62 ± 0.22	-1.44 ± 0.21
ACCGAGCAAUAUUACGGAGG	-3.01 ± 0.2	-2.72 ± 0.23
ACCGAGCAAUAUUACGGAUA	-2.8 ± 0.35	-2.33 ± 0.27
ACCGAGCAAUAUUACGGCUC	-4.07 ± 0.39	-1.54 ± 0.35
ACCGAGCAAUAUUACGGCUU	-2.63 ± 0.12	-1.14 ± 0.13
ACCGAGCAAUAUUACGGGUA	-2.6 ± 0.16	-0.706 ± 0.13
ACCGAGCAAUAUUACGUCGU	-3.09 ± 0.13	-1.04 ± 0.11
ACCGAGCAAUAUUACGUGAG	-2.27 ± 0.091	-0.997 ± 0.091

Sequence	self-splicing fitness (ln) (30 °C)	self-splicing fitness (ln) (37 °C)
ACCGAGCAAUAUUACGUUAA	-3 ± 0.13	-2.7 ± 0.14
ACCGAGCAAUAUUACGUUAG	-4.03 ± 0.15	-2.65 ± 0.15
ACCGAGCAAUAUUACGUUGU	-3.67 ± 0.17	-1.5 ± 0.12
ACCUAGCAAUAUUACGAAGU	-3.53 ± 0.19	-2.72 ± 0.19
ACCUAGCAAUAUUACGACUC	-0.748 ± 0.088	-0.405 ± 0.098
ACCUAGCAAUAUUACGAGGG	-3.45 ± 0.17	-1.4 ± 0.12
ACCUAGCAAUAUUACGAUGA	-1.21 ± 0.091	-0.609 ± 0.1
ACCUAGCAAUAUUACGCACA	-0.931 ± 0.078	-0.476 ± 0.079
ACCUAGCAAUAUUACGCUAA	-2.61 ± 0.23	-1.32 ± 0.16
ACCUAGCAAUAUUACGGAAG	-2.8 ± 0.23	-2.38 ± 0.19
ACCUAGCAAUAUUACGGAGA	-1.83 ± 0.17	-2.45 ± 0.2
ACCUAGCAAUAUUACGGCCU	-0.404 ± 0.069	-0.963 ± 0.075
ACCUAGCAAUAUUACGGCGC	-0.607 ± 0.097	0.63 ± 0.13
ACCUAGCAAUAUUACGGGAC	-1.87 ± 0.17	-1.36 ± 0.18
ACCUAGCAAUAUUACGGUGG	-4 ± 0.16	-3.02 ± 0.15
ACCUAGCAAUAUUACGUAAU	-1.28 ± 0.049	-0.573 ± 0.066
ACCUAGCAAUAUUACGUAUG	-2.71 ± 0.097	-1.61 ± 0.099
ACCUAGCAAUAUUACGUAUU	-1.84 ± 0.075	-1.71 ± 0.11
